# Test system: BT474 cells
# Assay: MTT assay, BT474 cells
# Format: cell-based, human
# Method: FIG. 3A) BT474 cells were incubated with 10 μg/mL control and pRNA-HER2apt-siMED1 nanoparticles for 48 h, and MED1 mRNA level was determined by real-time PCR. FIG. 3B) BT474 cells were incubated directly with (as indicated by -) or transfected with indicated pRNAs using lipofectamine 2000. At 48 h post treatment, MED1 protein levels were determined by western blotting. FIG. 3C) BT474 cells were treated with 10 μg/mL pRNA nanoparticles for 48 h and assayed for cell viability by MTT assay. FIG. 3D) Cells were treated as above and seeded for migration, and FIG. 3E) invasion transwell assays. Scale bar: 50 μm. FIG. 3F) After pRNA treatment for 48 h, the mRNA levels of ERα target genes TFF-1, FIG. 3G) c-Myc, and FIG. 3H) cyclin D1 in BT474 cells were determined by real-time PCR.
# FIG. 4A) BT474 cells were treated with pRNA nanoparticles in combination with vehicle or 1 μM 4-hydroxy-tamoxifen (4-OHT) as indicated for 48 h, and assayed for cell viability by MTT assay. […] FIG. 4E) The number of mammospheres was counted, and FIG. 4F) the mammosphere size was calculated. […]
# FIG. 9A) BT474 cells were treated with different concentrations of pRNA nanoparticles as indicated for 48 h. After that, MED1 protein level was determined by western blots, and FIG. 9B) the cell viability was determined by MTT assay. […]
molecule,measurement,setting,value
"pRNA-HER2apt-siMED1: 3-WJ pRNA nanoparticle bearing a HER2-targeting RNA aptamer and two different MED1 siRNAs; strands p1 SEQ ID NO: 3, p2 SEQ ID NO: 4 (nucleic acid, 2'-F modification; third strand may lack entry; pRNA-HER2apt-siMED1, p1; pRNA-HER2apt-siMED1, p2) chain 1: GGACAGUGAAAGUGAGUCAAAGGAUCAAUCAUGGCCAAAGAUGUUACUUUGAGAGCCUU chain 2: GGCUCUCAAAGUAACAUCUAAGGCCAUGUGUAUGUGGGGGGAGGACGAUGCGGUCUGCUGUGCUUGAUAUGCCCCAGACGACUCGCCCCCCACAUACUUUGUUGAUCCAAUGACUCACUUUCACUGUCCUU",cell growth (MTT),"BT474, 48 h, nanoparticles alone",dose-dependently inhibited
same,effect on tamoxifen inhibition of cell growth,"BT474, in combination with 1 μM 4-hydroxy-tamoxifen, 48 h",significantly enhanced the inhibitory effects of tamoxifen

# Reference: patent US11110182B2, “Multifunctional RNA nanoparticles and methods for treating cancer and therapeutic resistant cancer” (University of Cincinnati, priority 2016, dated 2021)
